Measurements reported in patent US20090148408A1.

Target: envelope glycoproteins of HIV-1HxB2 strain on Env-pseudotyped luciferase reporter virus (HIV-1 HxB2) (UniProt P04578)
Assay: cell-based or functional assay

Row | Substance | inhibition of HIV-1 entry (luciferase activity at 48 hours), co-incubation of L. jensenii Xna-651 bacteria at 2.5x10^8/ml with virus and HeLa CD4-CXCR4 cells [%] | inhibition of HIV-1 entry (luciferase activity at 48 hours), co-incubation of L. jensenii Xna-651 bacteria at 5x10^8/ml with virus and HeLa CD4-CXCR4 cells [%]
1 | 2D-CD4 secreted by L. jensenii harboring pOSEL651 (P23 promoter-CbsAss-2D-CD4) (from UniProt P01730 26-208) | 79 | 
2 | 2D-CD4 secreted by L. jensenii harboring pOSEL651 (P23 promoter-CbsAss-2D-CD4) (from UniProt P01730 26-208) (receptor) |  | 90
